Source: PMC4429025, “Characterization of Mutants of Human Small Heat Shock Protein HspB1 Carrying Replacements in the N-Terminal Domain and Associated with Hereditary Motor Neuron Diseases” (PLoS ONE, 2015)

Experiments:
Assay in all cases: cross-linking; disulfide crosslinking: reduced proteins alone or mixed at 30 uM per monomer each, 1 h at 42°C, then dialysis against 50 mM Tris/HCl pH 7.4, 50 mM KCl, 1 mM MgCl2, 0.1 mM PMSF at 4, 15 or 37°C; non-reducing SDS PAGE
Conditions in all cases: both partners purified
P39L mutant of HspB1 = molecular target: T1, P39L mutant of HspB1 (human, UniProt P04792 1-205, P39L)
T1 construct: human HspB1 with the disease-associated replacement P39L, in pET23b (NdeI/XhoI); Mutation occurs in patients with type II Charcot-Marie-Tooth disease or dHMN; source: E. coli BL21 (DE3) pLysS, purified (ammonium sulfate fractionation, HiTrap Q, Superdex 200)
T1 sequence (P04792 whole entry P39L): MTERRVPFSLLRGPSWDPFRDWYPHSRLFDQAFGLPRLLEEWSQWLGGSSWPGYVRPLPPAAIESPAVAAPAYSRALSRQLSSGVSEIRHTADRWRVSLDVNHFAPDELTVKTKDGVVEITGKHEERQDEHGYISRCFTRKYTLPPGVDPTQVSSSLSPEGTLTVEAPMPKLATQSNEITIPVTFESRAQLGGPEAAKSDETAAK

E41K mutant of HspB1 = molecular target: T2, E41K mutant of HspB1 (human, UniProt P04792 1-205, E41K)
T2 construct: human HspB1 with the disease-associated replacement E41K, in pET23b (NdeI/XhoI); Mutation occurs in patients with distal hereditary motor neuropathy; source: E. coli BL21 (DE3) pLysS, purified (ammonium sulfate fractionation, HiTrap Q, Superdex 200)
T2 sequence (P04792 whole entry E41K): as the sequence (P04792 whole entry P39L) above, with L39P, E41K counted along it

[1] = molecular target: T3, wild type HspB1 (human small heat shock protein HspB1) (human, UniProt P04792 1-205)
T3 construct: human small heat shock protein HspB1, wild type, cDNA in pET23b; also called WT HspB1; WT; source: E. coli BL21 (DE3) pLysS, purified (ammonium sulfate fractionation, HiTrap Q, Superdex 200)
T3 sequence (P04792 whole entry): as the sequence (P04792 whole entry P39L) above, with L39P counted along it

G34R mutant of HspB1 = molecular target: T4, G34R mutant of HspB1 (human, UniProt P04792 1-205, G34R)
T4 construct: human HspB1 with the disease-associated replacement G34R, in pET23b (NdeI/XhoI); Mutation occurs in patients with distal hereditary motor neuropathy; source: E. coli BL21 (DE3) pLysS, purified (ammonium sulfate fractionation, HiTrap Q, Superdex 200)
T4 sequence (P04792 whole entry G34R): as the sequence (P04792 whole entry P39L) above, with G34R, L39P counted along it

Measured: binding result

B1: double mutant of HspB6 containing the substitutions C46S/E116C (natural protein, human, UniProt O14558 1-160, looked up)
chain: MEIPVPVQPSWLRRASAPLPGLSAPGRLFDQRFGEGLLEAELAALSPTTLAPYYLRAPSVALPVAQVPTDPGHFSVLLDVKHFSPEEIAVKVVGEHVEVHARHEERPDEHGFVARCFHRRYRLPPGVDPAAVTSALSPEGVLSIQAAPASAQAPPPAAAK
notes: HspB6 lacking the natural Cys of the N-terminal domain and with a single Cys at the position homologous to Cys137 of HspB1; also called Cys mutant of HspB6; Cys-mutant of HspB6; source: expressed and purified as described earlier [36]
binds: all assays above
